Experimental data from the DeepSol protein solubility set.

assay: soluble on expression in E. coli; label from the status in PepcDB or PDB records

Sequence | soluble on expression in E. coli
MEELKELRKEIDRIDEEILRLLNERAKLAKRIGEIKSKANLPIHVPEREREIFEKILRLNKEVYGGVFPQEALVHIYREIISACLSLEKKIKVAYLGPKATFTHQAALEFFGFSAHYTPCSTIRDVFVEVETKRADYGVVPVENTIEGVVNYTLDMFLESDVKIAGEIVIPITLHLLSASDSIENVEKVYSHKMALAQCRSWLEKNLPSVQVIEVESTAKACEIALEDERAGAVASEVAAYTYHLNILARNIQDSGDNFTRFLVIAKRDLKPTGSDKTSILFGVKDEPGALYKALEVFYKHGINLTKIESRPSKKKAWDYVFFVDLEGHKEEERVEKALKELKEKTQFLKVLGSYPKALLQE | soluble
LRDFNYSIAGNLTWARNKVIDLLEPAGEKNNPRQRSTGHSMSQYFGYEALGLFQSDEEANNWPQPQFGKAKAGDIKYKDQNGDGIIDAEDEIAIGRSNYPELVYGLNLNAEWKGFDITFFFQGAALADFYYNGYLAFPYIEGRGGALLEHHIGNTWTPENPKAEFPRLYYGGNANNQLFSSFWMRNGSYLRLKNVEIGYDFKKLLLSKVSEIQGLRLYFSGSNLLTWSQIKYFDPELRSTDGSAYPQMKTFVFGANITF | not soluble
MGSDKIHHHHHHMQIKLSTDGCTDFMFILENTVNHGIIMQPYHSYFVGPMDICSALITLSGTINTFGVRFRPCGLSRFMKISLSELTNIRLSVNDLNTIFSDSFAERLFEEQGIQCKINLIERYLKKHLYKSNHTMDTQISYAVNQINAHEGKISISHLMDEVNLCQRHFERKFKLHTGFTPQKYNSIVKFKNAIKILRNESFDNLLSVAVKAGYYDASHLSREVKKLSGSTPNFFLSLPPDNETTIIYTK | not soluble
MKLERVTVKNFRSHSDTVVEFKEGINLIIGQNGSGKSSLLDAILVGLYWPLRIKDIKKDEFTKVGARDTYIDLIFEKDGTKYRITRRFLKGYSSGEIHAMKRLVGNEWKHVTEPSSKAISAFMEKLIPYNIFLNAIYIRQGQIDAILESDEAREKVVREVLNLDKFETAYKKLSELKKTINNRIKEYRDILARTE | soluble
AEIKNVILMIGDGMGPQQVGLLETYANQAPNSIYKGNKTAIYQLAQEGVIGSSLTHPEDAIVVDSACSATMLATGIYSSSEVIGIDSQGNHVETVLEKAKKAGKATGLVSDTRLTHATPASFAAHQPHRSLENQIASDMLATGADVMLSGGLRHWIPKSTNDKGETYKQLEKLTQGDVYLKSKRKDDRNLLTEAEKDGYQLAFNRNMLDDAKGDKLLGLFAYSGMDDGIAYSNKKKSGERTQPSLKEMTQKALNILSKDEDGFFLMVEGGQIDWAGHSNDAGTMLHELLKFDEAIQTVYEWAKDREDTIVIVTADHETGSFGFSYSSNDLPKPQKRSGEAFADRDYAPNFNFGAFDILDGLYNQKQSYYGMISEFQKLDKSLQTPEKLAEIVNKNSEFPITAEQAKNVLASKPNPYRLAQHKYLSAEEVPAINDFDAFFPYNDRGNLLAREQATGQNIVWGTGTHTHTPVNVFAWGPAEKILPVSKIMHHSELGEYIKQQVN | soluble
MVERYSLSPMKDLWTEEAKYRRWLEVELAVTRAYEELGMIPKGVTERIRNNAKIDVELFKKIEEKTNHDVVAFVEGIGSMIGEDSRFFHYGLTSSDVLDTANSLALVEAGKILLESLKEFCDVLWEVANRYKHTPTIGRTHGVHAEPTSFGLKVLGWYSEMKRNVQRLERAIEEVSYGKISGAVGNYANVPPEVEEKALSYLGLKPEPVSTQVVPRDRHAFYLSTLAIVAAGIERIAVEIRHLQRTEVLEVEEPFRKGQRGSSAMPHKKNPITCERLTGLSRMMRAYVDPSLENIALWHERDISHSSVERYVFPDATQTLYYMIVTATNVVRNMKVNEERMKKNIDLTKGLVFSQRVLLKLIEKGLTRKEAYDIVQRNALKTWNSEKHFLEYLLEDEEVKKLVTKEELEELFDISYYLKHVDHIFERFEKE | soluble
MGSDKIHHHHHHMLPLVKLIRGQDNTIVEADLVELWQKHVDDYANKWKEQLKLHGQSDKFWDWEFKLEFIINRQANREGFAIEYEDETQGLMLIETQMHGSRLVEGKRLVYIDGIATAPWNRAYIQRPPKLKGVGTAFLAFARTRSLELGYEGRVGLHSLPGVEEFYDNQGMIDVGEDEDYDDLVYFEYGVFRSPV | not soluble
MGSDKIHHHHHHMLLTRNEPFTAEKIQAKADILELVQFERFCRDNALWDAMETCFTKDSNVKISWFQGTGHGFIEASKKMTNPAPHKIYNTQVWIKNDRAVAIMQATIQTRTIINGVEMELNSDAKLVTRVERIDGKWYINAFEGVYEKDSLMPVVPSKNADVPAELLANFRKSYACLALSLTLNGYEIDNNLPGIDRPEQVTQFFKEADEWLLQ | not soluble
MAHHHHHHMLYLKEIELGNYYICNLNDYPSEHCVVDYDPNKRIKFLCPIVHNEGEHMNTYNSSYCFTYEGIKDRLIIRNNEEPIYTTLPGIILENQILYDRYNLGIYIMPFKLEADMSIVCVCDTKKEYKGITPYIKINIKNSNNVLGVGSSDEYIKGCDFGNNKGKHQFLTSPQSHEHRSVCAILANPGDIVGINCINYNEDDPQNNDVTLEPSNCFSTVSFSLYTFSFVKMNINNILPDAKYYPETSAFPKDPNFKKFSTTSYLWIPANVPQAFFLVCSCKYAKGEGTAMYHVSSSTLEV | not soluble
MYYADSSPALVGLIALNARLHGIRADVVDFMAASTPAGEQAISHVYLPFSVAGVPSTFLVSM | not soluble
MAGRVKWVTDIEKSVLINNFEKRGWIQVTENEDWNFYWMSVQTIRNVFSVETGYRLSDDQIVNHFPNHYELTRKDLMVKNIKRYRKELEKEGSPLAEKDENGKYLYLDFVPVTYMLPADYNLFVEEFRKSPSSTWIMKPCGKAQGKGIFLINKLSQIKKWSRDSKTSSFVSQSTKEAYVISVYINNPLLIGGRKFDLRLYVLVSTYRPLRCYMYKLGFCRFCTVKYTPSTSELDNMFVHLTNVAIQKHGEDYNHIHGGKWTVNNLRLYLESTRGREVTSKLFDEIHWIIVQSLKAVAPVMNNDKHCFECYGYDIIIDDKLKPWLIEVNASPSLTSSTANDRILKYNLINDTLNIAVPNGEIPDCKWNKSPPKEVLGNYEILYDEELAQGDGAERELRNRPGQPVGPRAGRSRDSGRSVLTTWK | not soluble
MQSLMNNPVTRSNAPCLIVGIGYTTGSVRDLAQRAADYTPPLGDNATADERRQFGQADRFADFIDSELTAFLESRYTLNRNETAVFGHSFGALFGLYSLLSHRCFRRHWLVSPSIWWHNRRILDFMPSENRLDGIDACLNIGALERSSGCKRREERDMAGQAEQMAAELDRRGTAVFFREYPNADHGNVPFYSLTDCVEYLRE | not soluble
MRKLNNHDVHKRYQDRLEEDVEFTINYELPLSCLWSTIKDFSSDFEEKTEAFFILFKELLRRGHLKLQRDGQIIGHTPEEWEQIFREVWPEYEIEPNPLPGYAPFDIGMWLTVEAPAYAVWIDPEDGSEYWAG | soluble
MGSDKIHHHHHHMNKETQAMMLVPQGSIEGYIHAAYDYPMLTAEEEKELAERLYYHQDLDAAKTLILSHLRFVIHVARGYSGYGLPQADLIQEGNIGLMKAVKRFNPEVGVRLVSFAVHWIKAEIHEYVLRNWRIVKVATTKAQRKLFFNLRKTKQRLGWFSDKEVDMVANELGVSKEDVLEMESRMTGSDVGFDLPVDDDESYAPALYLEDKSSNFAAELENENFETQAADQVANALAELDERSQDIIKSRWLDDEKATLHDLAAKYNISAERVRQLETNALKKLKSAVSF | not soluble
MGSDKIHHHHHHMLKVSDLRLKYPNGQRKIFDHLNITIQDKEKVLLLGPSGCGKSTLLNVLSGIVPNLIELPMKYDELIVDPLSGVIFQDPDSQFCMPKVYEELAFVLENRQVPREDMDALIINALNMVNLNVTPETYIKDLSGGMKQKLAIVETILQQSKTLFLDEPTAMLDVQATEDLWTKLIELWEDQTVVIVEHKVKHIWNHVDRVILMDYNGNIIADECPEIILQKYVHLLSEYGVWHPRAWEFAPSRVDFPTTNSHLLQFKNGRIIRGKSTLLSFSDLEIGLGEWITITGANGSGKTTLLESIMQLIKYQGDVYFENQRLTKIKHAAKHMYLVYQNPELQFITNSVYDEINIHFNHLSKDQSDDETIQLLKLLDLQNVKDQHPYELSIGQKRRLSVATALSSKADIIFLDEPTFGLDSHNTFQLIKLFQKRINLGQSIVMVTHDDEIIERYPSRRLKISDGALLDCDGDTNV | not soluble
MSAPKRPKFSVGDIVVNTLYGTVGTITDIQQIDGTFLYEINHGHSLFAEQALILLSEFAGDLWIAEEIEIELPFFLGEIVRVRDYGGHLFKIVGVRTEIYRYYGEGWEETIYELKRLTDGWEIEVHLEDIIPLADGEETSVTLVQDIVIAAPVKASLLLPPADSGEKGPSVDELLDMYNDYKALYEWFGDEQYQRMMETVVKRLRTISDHQDRN | not soluble
MGSDKIHHHHHHMGYVAVRGGSEAISRAEELVTCLRLLGGSTPLQLPQIRDQLRHAVSRAMHEGALYAPLLAALALKQAEGDSIEAAFLLRAYRTTLPRVMASLPASGRDISCLRRISASFKDIPGGQILGPASDYLIRLLQPDLAHETIVDVARAAEQYAALVEKGGIRSGEWGRFPKVADYMRQEQMIVDIPADSEETEPFDITREPLVFPCPRSARLQALMQADTGSLMCLAYSSVRGYGDAHPALVELRYGYLAIQVAHPLTGEPITIGEIEVTETEVASKAHSVTSRTGTPRFNVGYGFAFGQSELKTMSMAILDSVLTQARAGSLAGESGPAADEEFVLLHTDGIEASGFVAHFKLPHYVTFAADLSVLDRARDHHAQQQSRLHQLVDQALTE | not soluble
ATLKDITRRLKSIKNIQKITKSMKMVAAAKYARAERELKPARVYGVGSLALYEKADIKTPEDKKKHLIIGVSSDRGLCGAIHSSVAKQMKSEAANLAAAGKEVKIIGVGDKIRSILHRTHSDQFLVTFKEVGRRPPTFGDASVIALELLNSGYEFDEGSIIFNRFRSVISYKTEEKPIFSLDTISSAESMSIYDDIDADVLRNYQEYSLANIIYYSLKESTTSEQSARMTAMDNASKNASEMIDKLTLTFNRTRQAVITKELIEIISGAAAL | soluble
MDLTHFQDGRPRMVDVTEKPETFRTATAEAFVELTEEALSALEKGGVGKGDPLVVAQLAGILAAKKTADLIPLCHPLPLTGVEVRVELLKAEKRVRIEATVKTKAETGVEMEAMTACAVAALTVYDMLKAASKGLVISQVRLLHKAGGKSGEWRREQ | soluble
MSKLLVVKAHPLTKEESRSVRALETFLASYRETNPSDEIEILDVYAPETNMPEIDEELLSAWGALRAGAAFETLSENQQQKVARFNELTDQFLSADKVVIANPMWNLNVPTRLKAWVDTINVAGKTFQYTAEGPKPLTSGKKALHIQSNGGFYEGKDFASQYIKAILNFIGVDQVDGLFIEGIDHFPDRAEELLNTAMTKATEYGKTF | soluble
LPSPSRQASTRRMSIGESIDGKINDWEEPRLDIEGFVVDYFTHRIRQNGMEWFGAPGLPSGVQPEHEMMRVMGTIFEKKHAENFETFSEQLLAVPRISFSLYQDVVRTVGNAQTDQSPMSYGRLIGLISFGGFVAAKMMESVELQGQVRNLFVYTSLFIKTRIRNNWKEHNRSWDDFMTLGKQMKEDYERAEAEKVGRRKQNRR | soluble
